B1: LINE1-full (parent)
chain: UACGUAGGUGGUUUUCCCCUGAUAGUGCUAAGGGGGCCUGGAAGUUUGGACUGGGCAGAGCUCAACACAGCGUGGCAAAGUGGCUGUGGCUAGACUGCCUCUCUGGAUUCCUCGUCACUCAGCAGGGCAUCUCUGAGAGAAAUGCC

The variants in this series derive from B1. Briefly: self-cleavage, relative activity (ratio to wild type); higher = more cleavage; in vitro, sequencing; the parent is a self-cleaving ribozyme.
Regarding UACGUAGGUGGUUUUCCCCUGAUAGUGCUGAGGGGGCCUGGAAGUUUGGACUGGGCAGAGCUCAACACAGCGUGGCAAAGUGGCUGUGGCUAGACUGCCUCUCUGGAUUCCUCGACACUCAGCAGGGCAUCUCUGAGAGAAAUGCC, the self-cleavage came out at 1.17.
Next, UACGUAGGUGGUUUUCCCCUGAUAGUGCUGAGGGGGCCUGGAAGUUUGGACUGGGCAGAGCUCAACACAGCGUGGCAAAGUGGCGGUGGCUAGACUGCCUCUCUGGAUUCCUCGUCACUCAGCAGGGCAUCUCUGAGAGAAAUGCC: 0.17; UACGUAGGUGGUUUUCCCCUGAUAGUGCUGAGGGGGCCUGGAAGUUUGGACUGGGCAGAGCUCAACACAGCGUGGCAAAGUGGCAGUGGCUAGACUGCCUCUCUGGAUUCCUCGUCACUCAGCAGGGCAUCUCUGAGAGAAAUGCC: 0.32; UACGUAGGUGGUUUUCCCCUGAUAGUGCUGAGGGGGCCUGGAAGUUUGGACUGGGCAGAGCUCAACACAGCGUGGCAAAGUGGCUGAGGCUAGACUGCCUCUCUGGAUUCCUCGUCACUCAGCAGGGCAUCUCUGAGAGAAAUGCC: 0.16.
For UACGUAGGUGGUUUUCCCCUGAUAGUGCUGAGGGGGCCUGGAAGUUUGGACUGGGCAGAGCUCAACACAGCGUGGCAAAGUGCCUGUGGCUAGACUGCCUCUCUGGAUUCCUCGUCACUCAGCAGGGCAUCUCUGAGAGAAAUGCC the value was 0.66.
As to UACGUAGGUGGUUUUCCCCUGAUAGUGCUGAGGGGGCCUGGAAGUUUGGACUGGGCAGAGCUCAACACAGCGUGGCAAAGUGGCUGUGGCUAGACUGCCUCUCUGGAUUCCACGUCACUCAGCAGGGCAUCUCUGAGAGAAAUGCC, the self-cleavage stood at 1.1.
UACGUAGGUGGUUUUCCCCUGAUAGUGCUGAGGGGGCCUGGAAGUUUGGACUGGGCAGAGCUCAACACAGCGUGGCAAAGUGGCUGUGGCUAGACUGCCUCUCUGGAUUCCCCGUCACUCAGCAGGGCAUCUCUGAGAGAAAUGCC: the self-cleavage was 0.96.
Next, UACGUAGGUGGUUUUCCCCUGAUAGUGCUGAGGGGGCCUGGAAGUUUGGACUGGGCAGAGCUCAACACAGCGUGGCAAAGUGGCUGUGGCUAGACUGCCUCUCUGGAUUCCUCGUCACUCAGCAGGGCAACUCUGAGAGAAAUGCC: 1.15; UACGUAGGUGGUUUUCCCCUGAUAGUGCUGAGGGGGCCUGGAAGUUUGGACUGGGCAGAGCUCAACACAGCGUGGCAAAGUGGCUGUGGCUAGACUGCCUCUCUCGAUUCCUCGUCACUCAGCAGGGCAUCUCUGAGAGAAAUGCC: 0.25.
Take UACGUAGGUGGUUUUCCCCUGAUAGUGCUGAGGGGGCCUGGAAGUUUGGACUGGGCAGAGCUCAACACAGCGUGGCAAAGUGGCUGUGGCUAGACUGCCUCUCUGGAUACCUCGUCACUCAGCAGGGCAUCUCUGAGAGAAAUGCC: the self-cleavage came to 1.38.
Next, UACGUAGGUGGUUUUCCCCUGAUAGUGCUGAGGGGGCCUGGAAGUUUGGACUGGGCAGAGCUCAACACAGCGUGGCAAAGUGGCUGUGGCUAGACUGCCUCUCUGGAUCCCUCGUCACUCAGCAGGGCAUCUCUGAGAGAAAUGCC: 1.71; UACGUAGGUGGUUUUCCCCUGAUAGUGCUGAGGGGGCCUGGAAGUUUGGACUGGGCAGAGCACAACACAGCGUGGCAAAGUGGCUGUGGCUAGACUGCCUCUCUGGAUUCCUCGUCACUCAGCAGGGCAUCUCUGAGAGAAAUGCC: 0.04; UACGUAGGUGGUUUUCCCCUGAUAGUGCUGAGGGGGCCUGGAAGUUUGGACUGGGCAGAGCCCAACACAGCGUGGCAAAGUGGCUGUGGCUAGACUGCCUCUCUGGAUUCCUCGUCACUCAGCAGGGCAUCUCUGAGAGAAAUGCC: 0.13.
Next, UACGUAGGUGGUUUUCCCCUGAUAGUGCUUAGGGGGCCUGGACGUUUGGACUGGGCAGAGCUCAACACAGCGUGGCAAAGUGGCUGUGGCUAGACUGCCUCUCUGGAUUCCUCGUCACUCAGCAGGGCAUCUCUGAGAGAAAUGCC: 1.57.
For UACGUAGGUGGUUUUCCCCUGAUAGUGCUGAGGGGGCCUGGAAGUUUGGACUGGGCAGAGCUCAACACAGCGUGGCAAAGUGGCUGUCGCUAGACUGCCUCUCUGGAUUCCUCGUCACUCAGCAGGGCAUCUCUGAGAGAAAUGCC the value was 0.44; for UACGUAGGUGGUUUUCCCCUGAUAGUGCUGAGGGGGCCUGGAAGUUUGGACUGGGCAGAGCUCAACACAGCGUGGCAAAGUGGCUGUGGCUAGACUGCCUCUCUGGAUUCCUCGUCACCCAGCAGGGCAUCUCUGAGAGAAAUGCC, 1.45.
For the variant UACGUAGGUGGUUUUCCCCUGAUAGUGCUGAGGGGGCCUGGAAGUUUGGACUGGGCAGAGCUCAACACAGCGUGGCAAAGUGGCUGUGGCUAGACUGCCUCUCUGGAUUCCUCGUCACACAGCAGGGCAUCUCUGAGAGAAAUGCC, the self-cleavage was determined as 1.01.
Next, UACGUAGGUGGUUUUCCCCUGAUAGUGCUGAGGGGGCCUGGAAGUUUGGACUGGGCAGAGCUCAACACAGCGAGGCAAAGUGGCUGUGGCUAGACUGCCUCUCUGGAUUCCUCGUCACUCAGCAGGGCAUCUCUGAGAGAAAUGCC: 1.19.
Next, UACGUAGGUGGUUUUCCCCUGAUAGUGCUGAGGGGGCCUGGAAGUUUGGACUGGGCAGAGCUCAACACAGCGGGGCAAAGUGGCUGUGGCUAGACUGCCUCUCUGGAUUCCUCGUCACUCAGCAGGGCAUCUCUGAGAGAAAUGCC: 0.81; UACGUAGGUGGUUUUCCCCUGAUAGUGCUGAGGGGGCCUGGAAGAUUGGACUGGGCAGAGCUCAACACAGCGUGGCAAAGUGGCUGUGGCUAGACUGCCUCUCUGGAUUCCUCGUCACUCAGCAGGGCAUCUCUGAGAGAAAUGCC: 1.53.
For UACGUAGGUGGUUUUCCCCUGAUAGUGCUGAGGGGGCCUGGAAGUUUGGACUGGGCAGAGCUCAACACAGCGUGGCAAAGUGGCUGUGGCUAGACUACCUCUCUGGAUUCCUCGUCACUCAGCAGGGCAUCUCUGAGAGAAAUGCC the value was 0.42.
Take UACGUAGGUGGUUUUCCCCUGAUAGUGCUGAGGGGGCCUGGAAGUUUGGACUGGGCAGAGCUCAACACAGCGUGGCAAAGUGGCUGUGGCUAGACCGCCUCUCUGGAUUCCUCGUCACUCAGCAGGGCAUCUCUGAGAGAAAUGCC: the self-cleavage was 0.45.
For UACGUAGGUGGUUUUCCCCUGAUAGUGCUGAGGGGGCCUGGAAGUUUGGACUGGGCAGAGCUCAACACAGCGUGGCAAAGUGGCUGUGGCUAGACAGCCUCUCUGGAUUCCUCGUCACUCAGCAGGGCAUCUCUGAGAGAAAUGCC the value was 0.21; for UACGUAGGUGGUUUUCCCCUGAUAGUGCUGAGGGGGCCUGGAAGUUUGGACUGGGCAGAGCUCAACACAGCGUGGCAAAGUGGCUGUGGCUAGACUGCCUCCCUGGAUUCCUCGUCACUCAGCAGGGCAUCUCUGAGAGAAAUGCC, 1.15; for UACGUAGGUGGUUUUCCCCUGAUAGUGCUGAGGGGGCCUGGAAGUUUGGACUGGGCAGAGCUCAACACAGCGUGGCAAAGUGGCUGUGGCUAGACUGCCUCUCUGGAUUCCUCGUCACUCAGCAGGGCAUCGCUGAGAGAAAUGCC, 1.93.
For UACGUAGGUGGUUUUCCCCUGAUAGUGCUGAGGGGGCCUGGAACUUUGGACUGGGCAGAGCUCAACACAGCGUGGCAAAGUGGCUGUGGCUAGACUGCCUCUCUGGAUUCCUCGUCACUCAGCAGGGCAUCUCUGAGAGAAAUGCC the value was 0.8; for UACGUAGGUGGUUUUCCCCUGAUAGUGCUGAGGGGGCCUGGAAGUUUGGACUGGGCAGAGCUCAACACAUCGUGGCAAAGUGGCUGUGGCUAGACUGCCUCUCUGGAUUCCUCGUCACUCAGCAGGGCAUCUCUGAGAGAAAUGCC, 0.11; for UACGUAGGUGGUUUUCCCCUGAUAGUGCUGAGGGGGCCUGGAAGUUUGGACUGGGCAGAGCUCAACACAGCGUGGCAAAGUGGCUGUGGCUAGACUGCCUCUCUGGAUUCCUCGUCACUCAGCAGUGCAUCUCUGAGAGAAAUGCC, 0.96.
Next, UACGUAGGUGGUUUUCCCCUGAUAGUGCUUUGGGGGCCUGGAAGUUUGGACUGGGCAGAGCUCAACACAGCGUGGCAAAGUGGCUGUGGCUAGACUGCCUCUCUGGAUUCCUCGUCACUCAGCAGGGCAUCUCUGAGAGAAAUGCC: 1.3; UACGUAGGUGGUUUUCCCCUGAUAGUGCUUGGGGGGCCUGGAAGUUUGGACUGGGCAGAGCUCAACACAGCGUGGCAAAGUGGCUGUGGCUAGACUGCCUCUCUGGAUUCCUCGUCACUCAGCAGGGCAUCUCUGAGAGAAAUGCC: 1.23; UACGUAGGUGGUUUUCCCCUGAUAGUGCUGAGGGGGCCUGGAAGUUUGGACUGGGCAGAGCUCAACACAGCGUGGCAAAGUGGCUGUGGCCAGACUGCCUCUCUGGAUUCCUCGUCACUCAGCAGGGCAUCUCUGAGAGAAAUGCC: 0.65.
On to UACGUAGGUGGUUUUCCCCUGAUAGUGCUUAGGGGGCCUGGGAGUUUGGACUGGGCAGAGCUCAACACAGCGUGGCAAAGUGGCUGUGGCUAGACUGCCUCUCUGGAUUCCUCGUCACUCAGCAGGGCAUCUCUGAGAGAAAUGCC, for which the self-cleavage was 0.99.
With UACGUAGGUGGUUUUCCCCUGAUAGUGCUGAGGGGGCCUGGAAGUUUGGACUGGGCAGAGCUCAACACAGCGUGGCAAAGUGGCUGUGGCUAGACUGCCUCUCUGGACUCCUCGUCACUCAGCAGGGCAUCUCUGAGAGAAAUGCC, the self-cleavage was determined as 0.5.
Next, UACGUAGGUGGUUUUCCCCUGAUAGUGCUGAGGGGGCCUGGAAGUUUGGACUGGGCAGAGCUCAACACAGCGUGGCAAAGUGGCUGUGGCUAGACUGCCUCUCUGGAUUCCUCGUCACUCAGCAGGGCAUCUCUGAGAGAAAAGCC: 0.93; UACGUAGGUGGUUUUCCCCUGAUAGUGCUGAGGGGGCCUGGAAGUUUGGACUGGGCAGAGCUCAACACAGCGUGGCAAAGUGGCUGUGGCUAGACUGCCUCUCUGGAUUCCUCGUCACUCAGCAGGGCAUCUCUGAGAGAAACGCC: 1.06; UACGUAGGUGGUUUUCCCCUGAUAGUGCUGAGGGGGCCUGGAAGUUUGGACUGGGCAGAGCUCAACACAGCGUAGCAAAGUGGCUGUGGCUAGACUGCCUCUCUGGAUUCCUCGUCACUCAGCAGGGCAUCUCUGAGAGAAAUGCC: 0.56.
For UACGUAGGUGGUUUUCCCCUGAUAGUGCUGAGGGGGCCUGGAAGUUUGGACUGGGCAGAGCUCAACACAGCGUGGCAAAGUGGCUGUGGCUAGACUGCCUCUCAGGAUUCCUCGUCACUCAGCAGGGCAUCUCUGAGAGAAAUGCC the value was 0.61.
Next, UACGUAGGUGGUUUUCCCCUGAUAGUGCUGAGGGGGCCUGGAAGUUUGGACUGGGCAGAGCUCAACACAGCGUGGCAAAGUGGCUGUGGCUAGACUGCCUCUCUGGAUUCCUCGUCACUCAGCAGGGCAUCUCUGAGAGAAAUGCU: 0.92; UACGUAGGUGGUUUUCCCCUGAUAGUGCUGAGGGGGCCUGGAAGUUUGGACUGGUCAGAGCUCAACACAGCGUGGCAAAGUGGCUGUGGCUAGACUGCCUCUCUGGAUUCCUCGUCACUCAGCAGGGCAUCUCUGAGAGAAAUGCC: 0.79.
